Earlier results on 1 substance are cited in article PMC8044989.

The series deals with RXFP3 (Homo sapiens) (UniProt Q9NSD7).
Sequence of UniProt Q9NSD7 (Q9NSD7 whole entry): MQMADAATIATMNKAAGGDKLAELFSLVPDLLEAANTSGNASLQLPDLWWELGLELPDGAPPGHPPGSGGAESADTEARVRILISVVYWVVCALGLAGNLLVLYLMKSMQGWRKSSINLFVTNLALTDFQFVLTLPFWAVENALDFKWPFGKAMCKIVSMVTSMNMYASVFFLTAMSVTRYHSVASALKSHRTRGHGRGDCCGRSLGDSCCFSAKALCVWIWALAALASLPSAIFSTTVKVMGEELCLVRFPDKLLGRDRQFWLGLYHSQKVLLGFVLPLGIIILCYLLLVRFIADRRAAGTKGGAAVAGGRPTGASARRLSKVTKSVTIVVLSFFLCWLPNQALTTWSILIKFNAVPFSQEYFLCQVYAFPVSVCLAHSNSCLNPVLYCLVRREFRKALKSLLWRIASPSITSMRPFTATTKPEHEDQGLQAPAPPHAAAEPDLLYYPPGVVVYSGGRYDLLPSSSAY

For relaxin-3 (from UniProt Q8WXF3), the Kd was 0.3 nM.
